Test system: cellular proteins of mitotic 293T cells
Assay: SILAC-MS of GST-p12_WT relative to GST-p12_mut14
Type: binding
Conditions: log2(H/M) >2.58 SDs from mean in both replicates
Procedure: For SILAC-MS experiments, 293T cells were grown is media containing light (R0K0, ^12C-Arginine and ^12C-Lysine), medium (R6K4, ^13C-Arginine and Lysine-4,4,5,5-d4) or heavy (R10K8, ^13C+^15N-Arginine and ^13C+^15N-Lysine) versions of L-Arginine and L-Lysine amino acids (Pierce) for a minimum of 6 doublings before transient expression of GST-p12 proteins. After performing the glutathione-sepharose pull-down assays equivalent volumes of the beads eluates were pooled and submitted to the Bristol University Proteomics Facility for RP nano-LC-MS/MS analysis. This analysis was performed on an LTQ-Orbitrap Velos mass spectrometer in line with a Dionex Ultimate 3000 nanoHPLC system as described in [53].
Supplementary file ppat.1007117.s002.tif: S2 Fig SILAC results showing no significant difference in protein complexes of Mo-MLV GST-p12_mut14 compared to GST-p12_WT. (Links to Fig 4). GST, Mo-MLV GST-p12_mut14 or GST-p12_WT were transiently-expressed in 293T cells cultured in light (L), medium (M) or heavy (H) SILAC media, respectively. GST-protein complexes were precipitated from mitotic cell lysates and analysed by LC-MS/MS. (A) To identify proteins enriched in the GST-p12_WT (H) sample relative to the GST-p12_mut14 (M) sample, log2(H/M) silac ratios of each set of MS hits (FDR <5%) from replicates (R1 and R2) were plotted as a frequency distribution. […]

B1: GST-p12_WT: N-terminally GST-tagged Mo-MLV p12 (protein)
chain: PALTPSLGAKPKPQVLSDSGGPLIDLLTEDPPPYRDPRPPPSDRDGNGGEATPAGEAPDPSPMASRLRGRREPPVADSTTSQAF
modifications: left off: GST, N-terminal, kept
notes: N-terminally GST-tagged Mo-MLV p12
proteins significantly enriched vs GST-p12_mut14: no proteins that passed the criteria for significant enrichment

Reference: article PMC6021111, “Murine leukemia virus p12 tethers the capsid-containing pre-integration complex to chromatin by binding directly to host nucleosomes in mitosis” (PLoS Pathogens, 2018)
